Experimental data published in US20190270826A1 (Janssen / Centocor, published 2019).
Residue numbers refer to the chain shown, from its start. Names and notes keep the numbering of the source. Blank lines part the entries; values can stand above or below the binder they belong to.

What was measured:
[1] = target: T1, recombinant human IL1RAP ECD (human, UniProt Q9NPH3 21-367); assay: SPR, summary
T1 construct: His-tagged; also called hIL1RAP-ECD; rhuIL1RAP
T1 sequence: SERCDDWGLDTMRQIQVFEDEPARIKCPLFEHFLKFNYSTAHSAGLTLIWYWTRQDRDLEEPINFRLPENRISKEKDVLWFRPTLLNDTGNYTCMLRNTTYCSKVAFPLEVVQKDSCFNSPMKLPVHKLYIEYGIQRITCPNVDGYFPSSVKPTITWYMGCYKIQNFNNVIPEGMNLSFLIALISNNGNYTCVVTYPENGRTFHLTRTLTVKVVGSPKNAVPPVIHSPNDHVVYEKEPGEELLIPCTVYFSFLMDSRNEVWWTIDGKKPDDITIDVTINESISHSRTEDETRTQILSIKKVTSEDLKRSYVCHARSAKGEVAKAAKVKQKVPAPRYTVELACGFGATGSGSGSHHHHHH

[2] = target: T1, recombinant human IL1RAP ECD; assay: SPR (ProteOn)
[3] = target: T2, recombinant cyno IL1RAP ECD (cynomolgus monkey, UniProt P59822 21-367 (rhesus entry)); assay: recombinant protein
T2 construct: also called rcynoIL1RAP
T2 sequence: T1 sequence with L183F, T273P, K326T

[4] = target: T3, cyno IL1RAP ECD displayed on HEK-293F cells (pDisplay) (cynomolgus monkey, UniProt P59822 21-367 (rhesus entry)); assay: HEK-293F cells (MSD)
T3 sequence: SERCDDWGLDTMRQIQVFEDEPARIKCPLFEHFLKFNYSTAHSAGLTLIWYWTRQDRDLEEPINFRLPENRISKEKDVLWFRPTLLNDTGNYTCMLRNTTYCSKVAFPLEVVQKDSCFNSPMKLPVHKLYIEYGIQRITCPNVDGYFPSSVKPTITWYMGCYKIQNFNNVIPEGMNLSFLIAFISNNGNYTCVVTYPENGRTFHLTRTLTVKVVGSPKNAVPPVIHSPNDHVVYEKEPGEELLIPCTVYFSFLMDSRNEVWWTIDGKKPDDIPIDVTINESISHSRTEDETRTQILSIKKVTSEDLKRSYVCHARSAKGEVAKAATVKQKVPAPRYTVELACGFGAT

[5] = target: T1, recombinant human IL1RAP ECD; assay: SPR; KD against parent IAPB54
human FcRn = target: T4, human FcRn (human, UniProt P55899 24-297; P61769 21-119, limits assumed); assay: AlphaScreen competition, human FcRn (n=1); displaced: biotinylated control mAb B21M WT IgG1 (m27); pH 6.0
T4 construct: GST-tagged
Excerpt: (§1) Measurements were made using an AlphaScreen™ assay (Amplified Luminescent Proximity Homogeneous Assay (ALPHA), PerkinElmer, Wellesley, Mass.), a bead-based luminescent proximity assay. Laser excitation of a donor bead excites oxygen, which if sufficiently close to the acceptor bead generates a cascade of chemiluminescent events, ultimately leading to fluorescence emission at 520-620 nm.

human FcγRIIb = target: T5, human FcγRIIb (human, UniProt P31994 43-217, limits assumed); assay: AlphaScreen competition, human FcγRIIb (n=1); displaced: biotinylated control mAb B21M hIgG1 WT; pH 7.2
T5 construct: GST-tagged
T5 sequence (looked up): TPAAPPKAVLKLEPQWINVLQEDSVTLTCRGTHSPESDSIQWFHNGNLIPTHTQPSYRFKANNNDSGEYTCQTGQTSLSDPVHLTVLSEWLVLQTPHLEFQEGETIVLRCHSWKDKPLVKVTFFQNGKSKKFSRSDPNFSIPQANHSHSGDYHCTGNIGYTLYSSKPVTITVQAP
Excerpt: as §1

human FcγRI = target: T6, human FcγRI (human, UniProt P12314 16-292, limits assumed); assay: AlphaScreen competition, human FcγRI (n=1); displaced: biotinylated control mAb B21M hIgG1 AlaAla; pH 7.2
T6 construct: GST-tagged, on glutathione acceptor beads; also called FcγRT [sic]
Excerpt: as §1

[6] = target: T1, recombinant human IL1RAP ECD; assay: SPR
[7] = target: T2, recombinant cyno IL1RAP ECD; assay: SPR
[8] = target: T1, recombinant human IL1RAP ECD; assay: SPR; remark: listed apart in the source
[9] = target: T2, recombinant cyno IL1RAP ECD; assay: SPR; remark: listed apart in the source
[10] = target: T1, recombinant human IL1RAP ECD; assay: SPR, summary; remark: listed apart in the source
[11] = target: T2, recombinant cyno IL1RAP ECD; assay: SPR, summary
[12] = target: T7, mouse IL1RAP ECD displayed on HEK-293F cells (pDisplay) (mouse, UniProt Q61730 21-367); assay: Murine Binder, summary
T7 sequence: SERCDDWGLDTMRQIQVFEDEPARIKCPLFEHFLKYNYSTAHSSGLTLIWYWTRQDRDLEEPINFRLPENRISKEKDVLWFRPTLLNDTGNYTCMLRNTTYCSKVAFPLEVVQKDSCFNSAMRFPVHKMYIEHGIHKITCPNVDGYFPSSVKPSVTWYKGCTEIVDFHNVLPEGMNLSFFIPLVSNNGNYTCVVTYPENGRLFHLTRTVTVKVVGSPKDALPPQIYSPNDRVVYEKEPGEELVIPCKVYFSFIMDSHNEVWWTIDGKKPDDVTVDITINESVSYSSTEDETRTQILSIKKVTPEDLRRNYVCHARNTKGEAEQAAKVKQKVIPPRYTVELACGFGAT

[13] = target: T8, human IL1RAP on cells (endogenous) (human, UniProt Q9NPH3 21-570); assay: cell-based or functional assay
T8 sequence (looked up): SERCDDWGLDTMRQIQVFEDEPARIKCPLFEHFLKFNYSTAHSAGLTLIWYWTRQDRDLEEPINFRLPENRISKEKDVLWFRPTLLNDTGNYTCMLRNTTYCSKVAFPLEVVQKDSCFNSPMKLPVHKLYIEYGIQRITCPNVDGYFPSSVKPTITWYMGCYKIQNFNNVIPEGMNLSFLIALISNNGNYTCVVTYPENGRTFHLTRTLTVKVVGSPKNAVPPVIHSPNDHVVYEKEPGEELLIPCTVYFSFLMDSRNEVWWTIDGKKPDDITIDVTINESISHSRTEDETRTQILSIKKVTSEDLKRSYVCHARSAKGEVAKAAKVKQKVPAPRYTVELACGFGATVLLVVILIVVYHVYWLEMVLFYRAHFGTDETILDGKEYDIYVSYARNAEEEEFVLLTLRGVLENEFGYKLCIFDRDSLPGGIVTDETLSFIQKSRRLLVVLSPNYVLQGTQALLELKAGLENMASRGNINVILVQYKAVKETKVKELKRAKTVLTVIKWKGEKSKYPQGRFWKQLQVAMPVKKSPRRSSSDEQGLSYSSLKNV

[14] = target: T1, recombinant human IL1RAP ECD; assay: SPR; human KD over cyno KD

Kd [6]: 6.1 nM
koff [6]: 0.00659 s⁻¹
kon [6]: 1.08e+06 M⁻¹ s⁻¹
Kd [7]: 4.74 nM
koff [7]: 0.00583 s⁻¹
kon [7]: 1.23e+06 M⁻¹ s⁻¹
Kd [8]: 6.1 nM
Kd [9]: 4.74 nM
Kd [10]: 6.1 nM
Kd [11]: 4.74 nM
binding result [12]: binds
Hu/Cyno KD Ratio [14]: 1.3
B5: IC3B7 (bispecific antibody, human IgG4 S228P, kappa, lambda, F234A L235A)
heavy 1: EVQLVESGGGLVQPGGSLKLSCAASGFTFNTYAMNWVRQASGKGLEWVGRIRSKYNAYATYYAASVKGRFTISRDDSKNTAYLQMNSLKTEDTAVYYCTRHGNFGNSYVSWFAYWGQGTLVTVSSASTKGPSVFPLAPCSRSTSESTAALGCLVKDYFPEPVTVSWNSGALTSGVHTFPAVLQSSGLYSLSSVVTVPSSSLGTKTYTCNVDHKPSNTKVDKRVESKYGPPCPPCPAPEAAGGPSVFLFPPKPKDTLMISRTPEVTCVVVDVSQEDPEVQFNWYVDGVEVHNAKTKPREEQFNSTYRVVSVLTVLHQDWLNGKEYKCKVSNKGLPSSIEKTISKAKGQPREPQVYTLPPSQEEMTKNQVSLTCLVKGFYPSDIAVEWESNGQPENNYKTTPPVLDSDGSFLLYSKLTVDKSRWQEGNVFSCSVMHEALHNHYTQKSLSLSLGK
light 1: QAVVTQEPSLTVSPGGTVTLTCRSSTGAVTTSNYANWVQQKPGQAPRGLIGGTNKRAPGTPARFSGSLLGGKAALTLSGAQPEDEAEYYCALWYSNLWVFGGGTKLTVLGQPKAAPSVTLFPPSSEELQANKATLVCLISDFYPGAVTVAWKADSSPVKAGVETTTPSKQSNNKYAASSYLSLTPEQWKSHRSYSCQVTHEGSTVEKTVAPTECS
heavy 2: not shown
light 2: not shown
notes: IgG4-PAA, Fab arm exchange; also called IAPB17 x CD3B220
EC50, T-cell mediated cytotoxicity [13]: 3.4 nM

Kd [6]: 4.77 nM
Kd [8]: 4.77 nM
Kd [10]: 4.77 nM
binding result [12]: binds
B6: IC3B10 (bispecific antibody, human IgG4 S228P, kappa, lambda, F234A L235A)
heavy 1: B5 heavy 1
light 1: B5 light 1
heavy 2: not shown
light 2: not shown
notes: IgG4-PAA, Fab arm exchange
EC50, T-cell mediated cytotoxicity [13]: 0.124 nM

Kd [6]: 4.56 nM
koff [6]: 0.00354 s⁻¹
kon [6]: 776000 M⁻¹ s⁻¹
Kd [7]: 5.27 nM
koff [7]: 0.00409 s⁻¹
kon [7]: 776000 M⁻¹ s⁻¹
Kd [8]: 4.56 nM
Kd [9]: 5.27 nM
Kd [10]: 4.56 nM
Kd [11]: 5.27 nM
binding result [12]: binds
Hu/Cyno KD Ratio [14]: 0.9
B7: IC3B11 (bispecific antibody, human IgG4 S228P, kappa, lambda, F234A L235A)
heavy 1: B5 heavy 1
light 1: B5 light 1
heavy 2: not shown
light 2: not shown
notes: IgG4-PAA, Fab arm exchange; also called IAPB9 x CD3B220
EC50, T-cell mediated cytotoxicity [13]: 1.32 nM

More lines, now with the values behind:

B1: IAPB54 (antibody, human IgG4 S228P, lambda, F234A L235A, V domains shown)
VH: QVQLVQSGSELKKPGASVKVSCKASGYTFNTYAMNWVRQAPGQGLEWMGWINTNTGNPTYAQGFTGRFVFSLDTSVSTAYLQISSLKAEDTAVYYCARRYFDWLLGAFDIWGQGTMVTVSS
VL: QSALTQPRSVSGSPGHSVTISCTGTSSDVGDYNYVSWYQQRPGKVPKLLIYDVSKRPSGVPDRFSGSKSGNTASLTISGLQAEDEAIYFCCSYAGNYNVVFGGGTKLTVLG
notes: IgG4-PAA; also called 17B04 with human IgG4-PAA
Kd [1]: 0.58 nM
Kd [2]: 0.0775 nM
koff [2]: 7.48e-05 s⁻¹
kon [2]: 965000 M⁻¹ s⁻¹
binding result [3]: binds
binding result [4]: binds
Fold Different from parent [5]: 1 fold

B2: IAPB63 (antibody, human IgG4 S228P, lambda, F234A L235A)
heavy: not shown
light: QSALTQPRSVSGSPGHSVTISCTGTSSDVGDYNYVSWYQQRPGKVPKLLIYDVSKRPSGVPDRFSGSKSGNTASLTISGLQAEDEAIYFCASYAGNYNVVFGGGTKLTVLGQPKAAPSVTLFPPSSEELQANKATLVCLISDFYPGAVTVAWKADSSPVKAGVETTTPSKQSNNKYAASSYLSLTPEQWKSHRSYSCQVTHEGSTVEKTVAPTECS
notes: IgG4-PAA; whole chains; also called IAPB54-LC-C91A
Kd [1]: 0.11 nM
Kd [2]: 0.108 nM
koff [2]: 9.76e-05 s⁻¹
kon [2]: 900000 M⁻¹ s⁻¹
Fold Different from parent [5]: 1.4 fold
IC50 (read off the curve) (human FcRn): ~200 nM
binding result (human FcγRIIb): binds
IC50 (read off the curve) (human FcγRI): ~90 nM

B3: IAPB64 (antibody, human IgG4 S228P, lambda, F234A L235A, V domains shown)
VH: B1 VH
VL: B1 VL with C91S
notes: IgG4-PAA; whole chains; also called IAPB54-LC-C91S
Kd [1]: 0.38 nM
Kd [2]: 0.367 nM
koff [2]: 0.000234 s⁻¹
kon [2]: 638000 M⁻¹ s⁻¹
Fold Different from parent [5]: 4.7 fold

B4: IC3B2 (bispecific antibody, human IgG4 S228P, kappa, lambda, F234A L235A)
heavy 1: B5 heavy 1
light 1: B5 light 1
heavy 2: not shown
light 2: not shown
notes: IgG4-PAA, Fab arm exchange; also called IAPB38 x CD3B220
Kd [6]: 7.36 nM
koff [6]: 0.000827 s⁻¹
kon [6]: 112000 M⁻¹ s⁻¹
Kd [7]: 16.9 nM
koff [7]: 0.00223 s⁻¹
kon [7]: 132000 M⁻¹ s⁻¹
Kd [8]: 7.36 nM
Kd [9]: 16.9 nM
Kd [10]: 7.36 nM
Kd [11]: 16.9 nM
binding result [12]: binds
EC50, T-cell mediated cytotoxicity [13]: 0.077 nM
Hu/Cyno KD Ratio [14]: 0.4
